The values that follow are results of earlier work, collected in paper PMC2853873.

For orientation: Ki means a measure of affinity in units of concentration, obtained from inhibition or displacement.

For data set [1], the target named is ADAMTS-2 (Homo sapiens) (UniProt O95450).
Data set [2] has the same target. This is another data set of the same source.

Read-outs that look alike come from different tables or passages of the source.

UniProt O95450, sequence (O95450 254-1211): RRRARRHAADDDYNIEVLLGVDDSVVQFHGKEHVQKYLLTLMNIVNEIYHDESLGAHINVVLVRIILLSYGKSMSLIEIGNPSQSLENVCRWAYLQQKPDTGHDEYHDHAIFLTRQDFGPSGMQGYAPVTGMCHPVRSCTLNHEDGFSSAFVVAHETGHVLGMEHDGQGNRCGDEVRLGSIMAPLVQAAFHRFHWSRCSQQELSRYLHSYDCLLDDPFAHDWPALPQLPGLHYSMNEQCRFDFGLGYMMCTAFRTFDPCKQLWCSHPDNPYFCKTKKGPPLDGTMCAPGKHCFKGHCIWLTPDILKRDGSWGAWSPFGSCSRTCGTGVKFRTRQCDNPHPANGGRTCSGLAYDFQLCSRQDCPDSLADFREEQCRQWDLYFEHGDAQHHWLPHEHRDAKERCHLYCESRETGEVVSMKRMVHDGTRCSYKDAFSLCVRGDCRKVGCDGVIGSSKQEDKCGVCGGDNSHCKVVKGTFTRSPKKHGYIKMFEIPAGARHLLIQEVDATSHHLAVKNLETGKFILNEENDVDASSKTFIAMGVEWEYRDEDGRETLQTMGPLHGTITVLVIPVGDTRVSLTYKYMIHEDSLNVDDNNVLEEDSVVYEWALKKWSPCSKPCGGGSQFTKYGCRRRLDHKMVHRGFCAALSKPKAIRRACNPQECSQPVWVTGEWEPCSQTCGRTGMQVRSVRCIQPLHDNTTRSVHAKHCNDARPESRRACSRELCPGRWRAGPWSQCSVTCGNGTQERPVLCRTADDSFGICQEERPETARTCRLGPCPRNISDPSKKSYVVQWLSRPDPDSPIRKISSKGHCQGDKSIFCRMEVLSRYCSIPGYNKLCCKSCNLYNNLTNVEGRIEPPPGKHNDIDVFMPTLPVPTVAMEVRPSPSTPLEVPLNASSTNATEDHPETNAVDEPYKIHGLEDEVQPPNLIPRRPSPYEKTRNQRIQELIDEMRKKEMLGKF

Regarding “N-TIMP-3 N-terminal domain (from UniProt P35625)”, the values for the Ki with ADAMTS-2 (Homo sapiens) [1] and with ADAMTS-2 (Homo sapiens) [2] were 160 nM and 600 nM, respectively.
